Molecular target: full-length N1-CA09-sNAp-130, membrane-anchored, C-terminal myc tag (Influenza A virus A/California/07/2009 …, UniProt C7FH46, stabilised)
Experiment: flow cytometry on cells
Details: one partner purified

B1: CD6 IgG (antibody, V domains shown)
VH: QVKLQESGGGLVQPKGSLKLSCAASGFTFNTYAMNWVRQAPGKGLEWVARIRSKSNNYATFYADSVKDRFTISRDDSQSMLYLQMHNLKTDDTAMYYCVRPSIYYYASGYLDVWGAGTTVTVSS
VL: QIVLSQSPAILSASPGEKVTMTCRTSSSVSYMHWYQQKPGSSPKPWIYATSNLASGVPFRFSGSGSGTSYSLTISRVEAEDAATYYCQQWNSNPPTFGGGTKLEIK
notes: copies: 2 + 2
  binding result: binds

Reference: PMC8983682 (Nature Communications, 2022)
